Test results: PMC8586334

Assays:
[1] = target: S. cerevisiae RPA-SSL heterotrimer (Rfa1-F11S, I14S, F15L; Rfa2; Rfa3) (S. cerevisiae) (UniProt P22336)
[2] = target: S. cerevisiae replication protein A (RPA), wild type heterotrimer (Rfa1, Rfa2, Rfa3) (S. cerevisiae) (UniProt P22336)
Sequence of S. cerevisiae replication protein A (RPA), wild type heterotrimer (Rfa1, Rfa2, Rfa3) (S. cerevisiae) (P22336 whole entry, chain 1 of 3): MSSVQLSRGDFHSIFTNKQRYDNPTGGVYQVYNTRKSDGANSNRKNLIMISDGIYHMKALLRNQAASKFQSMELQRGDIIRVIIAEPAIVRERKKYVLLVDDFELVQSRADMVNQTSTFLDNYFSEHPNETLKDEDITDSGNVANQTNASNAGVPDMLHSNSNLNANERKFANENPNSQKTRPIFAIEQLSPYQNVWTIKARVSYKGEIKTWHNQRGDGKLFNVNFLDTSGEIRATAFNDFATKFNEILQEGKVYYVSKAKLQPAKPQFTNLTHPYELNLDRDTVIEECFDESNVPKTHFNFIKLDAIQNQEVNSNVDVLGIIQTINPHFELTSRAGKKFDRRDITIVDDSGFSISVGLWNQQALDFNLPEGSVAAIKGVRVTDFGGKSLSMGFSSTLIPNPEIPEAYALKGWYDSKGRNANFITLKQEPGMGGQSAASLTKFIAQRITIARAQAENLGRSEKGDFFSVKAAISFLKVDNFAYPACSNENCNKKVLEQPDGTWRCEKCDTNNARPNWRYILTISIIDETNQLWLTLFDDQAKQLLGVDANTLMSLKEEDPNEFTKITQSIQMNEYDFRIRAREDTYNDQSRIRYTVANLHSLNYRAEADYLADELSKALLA
Sequence of S. cerevisiae replication protein A (RPA), wild type heterotrimer (Rfa1, Rfa2, Rfa3) (S. cerevisiae) (P26754 whole entry, chain 2 of 3, further chain): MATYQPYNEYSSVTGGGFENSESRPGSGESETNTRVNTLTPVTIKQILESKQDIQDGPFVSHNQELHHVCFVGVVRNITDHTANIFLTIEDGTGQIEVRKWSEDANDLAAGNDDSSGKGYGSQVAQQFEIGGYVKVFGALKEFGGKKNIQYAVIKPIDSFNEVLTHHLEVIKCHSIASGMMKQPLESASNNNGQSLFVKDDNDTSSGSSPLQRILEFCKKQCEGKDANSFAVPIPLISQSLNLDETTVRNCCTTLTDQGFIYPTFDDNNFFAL
Sequence of S. cerevisiae replication protein A (RPA), wild type heterotrimer (Rfa1, Rfa2, Rfa3) (S. cerevisiae) (P26755 whole entry, chain 3 of 3, further chain): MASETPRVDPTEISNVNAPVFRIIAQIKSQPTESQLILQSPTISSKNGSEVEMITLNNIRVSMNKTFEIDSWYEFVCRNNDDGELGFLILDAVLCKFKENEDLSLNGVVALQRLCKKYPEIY

Sequence of S. cerevisiae RPA-SSL heterotrimer (Rfa1-F11S, I14S, F15L; Rfa2; Rfa3) (S. cerevisiae) (P22336 whole entry F11S/I14S/F15L, chain 1 of 3): as the sequence (P22336 whole entry, chain 1 of 3) above, with F11S, I14S, F15L counted along it
Sequence of S. cerevisiae RPA-SSL heterotrimer (Rfa1-F11S, I14S, F15L; Rfa2; Rfa3) (S. cerevisiae) (P26754 whole entry, chain 2 of 3, further chain): as the sequence (P26754 whole entry, chain 2 of 3, further chain) above
Sequence of S. cerevisiae RPA-SSL heterotrimer (Rfa1-F11S, I14S, F15L; Rfa2; Rfa3) (S. cerevisiae) (P26755 whole entry, chain 3 of 3, further chain): as the sequence (P26755 whole entry, chain 3 of 3, further chain) above

Question: How did the ATPase activity (apparent kcat) of Dna2-E675A with ssDNA, stimulation by the RPA variant (48 nM) [1] turn out when “S. cerevisiae Dna2-E675A (nuclease-dead) (from UniProt P38859 1-1522) (enzyme)” was run?
Answer: 2 fold

Question: And the ATPase activity (apparent kcat) of Dna2-E675A with ssDNA, stimulation by the RPA variant (48 nM) [2]?
Answer: 2 fold
